Experimental data as given in patent publication US20140328819.

T1: soluble tissue factor (sTF), P13726
T1 chain: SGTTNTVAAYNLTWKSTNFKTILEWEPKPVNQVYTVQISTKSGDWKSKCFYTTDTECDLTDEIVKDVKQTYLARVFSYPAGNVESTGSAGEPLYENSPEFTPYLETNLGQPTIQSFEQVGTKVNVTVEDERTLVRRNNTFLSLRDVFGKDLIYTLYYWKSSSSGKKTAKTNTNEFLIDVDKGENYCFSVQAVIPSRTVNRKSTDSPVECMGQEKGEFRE

B1: FVIIa-AE288 (activated FVII-AE288, AC398) (protein)
chain: AVFVTQEEAHGVLHRRRRANAFLEELRPGSLERECKEEQCSFEEAREIFKDAERTKLFWISYSDGDQCASSPCQNGGSCKDQLQSYICFCLPAFEGRNCETHKDDQLICVNENGGCEQYCSDHTGTKRSCRCHEGYSLLADGVSCTPTVEYPCGKIPILEKRNASKPQGRIVGGKVCPKGECPWQVLLLVNGAQLCGGTLINTIWVVSAAHCFDKIKNWRNLIAVLGEHDLSEHDGDEQSRRVAQVIIPSTYVPGTTNHDIALLRLHQPVVLTDHVVPLCLPERTFSERTLAFVRFSLVSGWGQLLDRGATALELMVLNVPRLMTQDCLQQSRKVGDSPNITEYMFCAGYSDGSKDSCKGDSGGPHATHYRGTWYLTGIVSWGQGCATVGHFGVYTRVSQYIEWLQKLMRSEPRPGVLLRAPFPGSPGTSESATPESGPGSEPATSGSETPGTSESATPESGPGSEPATSGSETPGTSESATPESGPGTSTEPSEGSAPGSPAGSPTSTEEGTSESATPESGPGSEPATSGSETPGTSESATPESGPGSPAGSPTSTEEGSPAGSPTSTEEGTSTEPSEGSAPGTSESATPESGPGTSESATPESGPGTSESATPESGPGSEPATSGSETPGSEPATSGSETPGSPAGSPTSTEEGTSTEPSEGSAPGTSTEPSEGSAPGSEPATSGSETPGTSESATPESGPGTSTEPSEGSAPGSSS

Tests used:
[1] = tested on: FIX/cFXI2/XTEN (pCW0736), FIX-DFTRVVG-XTEN_AE864
[2] = tested on: FIX/cFXI3/XTEN (pCW0737), FIX-/FXI/-XTEN_AE864
[3] = tested on: FIX/cFXI1/XTEN (pCW0735), FIX-KLTRAET-XTEN_AE864
[4] = target: T1, soluble tissue factor (sTF), P13726

Row | Molecule | Concentration by Activity (ng/ml), aPTT based factor assay [1] [ng/mL] | Fraction Active (activity / ELISA) [1] [%] | clotting activity (aPTT based factor assay), fold enhancement by the FXI cleavage site [1] | Concentration by Activity (ng/ml), aPTT based factor assay [2] [ng/mL] | Fraction Active (activity / ELISA) [2] [%] | clotting activity (aPTT based factor assay), fold enhancement by the FXI cleavage site [2] | Concentration by Activity (ng/ml), aPTT based factor assay [3] [ng/mL] | Fraction Active (activity / ELISA) [3] [%] | clotting activity (aPTT based factor assay), fold enhancement by the FXI cleavage site [3] | soluble tissue factor (sTF) induced clotting in FVII null plasma (Stago STA-Clot FVIIa activity assay kit) [4]
1 | FXI protease (FXIa) of the aPTT assay plasma | 9 | 34 | In all three cases the presence of a FXI cleavage site enhanced the clotting activity by greater than 30-fold | 11 | 40 | In all three cases the presence of a FXI cleavage site enhanced the clotting activity by greater than 30-fold | 7 | 30 | In all three cases the presence of a FXI cleavage site enhanced the clotting activity by greater than 30-fold | –
2 | B1 | – | – | – | – | – | – | – | – | – | an activity equivalent to 112 U/ml of FVIIa activity
